# In patent publication US20170204158A1 (Regeneron, published 2017):
# Several values for one entry are separate records, joined by “and”; a condition that tells them apart may be missing. Identical values can stand only once.
# T1: human ST2 (amino acids 1-556 of accession number NP_057316) on HEK293/hST2/NFkB-luciferase cells (human, UniProt Q01638 19-556)
# T1 sequence (looked up): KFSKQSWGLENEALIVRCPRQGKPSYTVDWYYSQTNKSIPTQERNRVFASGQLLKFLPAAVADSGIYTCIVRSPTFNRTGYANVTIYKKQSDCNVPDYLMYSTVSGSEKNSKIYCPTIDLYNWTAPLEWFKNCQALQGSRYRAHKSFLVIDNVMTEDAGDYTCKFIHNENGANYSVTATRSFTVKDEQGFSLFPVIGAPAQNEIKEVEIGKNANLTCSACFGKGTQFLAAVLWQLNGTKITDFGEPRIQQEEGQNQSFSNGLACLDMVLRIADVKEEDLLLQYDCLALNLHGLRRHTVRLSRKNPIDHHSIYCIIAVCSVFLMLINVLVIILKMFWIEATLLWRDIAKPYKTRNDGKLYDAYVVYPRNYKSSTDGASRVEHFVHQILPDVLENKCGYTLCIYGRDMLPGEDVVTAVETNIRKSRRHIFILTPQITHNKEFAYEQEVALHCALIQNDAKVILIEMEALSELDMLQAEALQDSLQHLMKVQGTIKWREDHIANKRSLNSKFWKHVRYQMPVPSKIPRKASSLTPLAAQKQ
# T2: human IL-33 (R&D Systems, # 3625-IL-010/CF) (human, UniProt O95760 112-270, biotinylated in the blocking ELISA of Example 3 (sites not given))
# T2 construct: Commercial protein; also called hIL-33; biot-hIL-33
# T2 sequence (looked up): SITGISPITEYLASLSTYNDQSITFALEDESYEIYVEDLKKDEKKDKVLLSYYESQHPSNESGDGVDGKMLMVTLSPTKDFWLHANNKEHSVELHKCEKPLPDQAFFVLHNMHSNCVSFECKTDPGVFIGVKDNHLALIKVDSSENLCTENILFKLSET
# T3: mouse IL-33 (R&D Systems, # 3626-ML-010/CF) (mouse, UniProt Q8BVZ5 109-266)
# T3 construct: Commercial protein; also called mIL-33; mIL33
# T3 sequence (looked up): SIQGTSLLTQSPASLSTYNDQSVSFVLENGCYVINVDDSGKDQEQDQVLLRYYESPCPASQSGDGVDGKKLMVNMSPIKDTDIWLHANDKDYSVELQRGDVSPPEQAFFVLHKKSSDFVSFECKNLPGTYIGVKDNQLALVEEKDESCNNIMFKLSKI
# B1: monkey IL-33 expressed with C-terminal hexahistidine tag (MfIL-33-6His) (ligand)
# chain: SITGISPITESLASLSTYNDQSITFALEDESYEIYVEDLKKDKKKDKVLLSYYESQHPSSESGDGVDGKMLMVTLSPTKDFWLQANNKEHSVELHKCEKPLPDQAFFVLHNRSFNCVSFECKTDPGVFIGVKDNHLALIKVDYSENLGSENILFKLSEILEHHHHHH
# B2: mST2-mIL1RAcP-mFc (Fc fusion)
# chain: SKSSWGLENEALIVRCPQRGRSTYPVEWYYSDTNESIPTQKRNRIFVSRDRLKFLPARVEDSGIYACVIRSPNLNKTGYLNVTIHKKPPSCNIPDYLMYSTVRGSDKNFKITCPTIDLYNWTAPVQWFKNCKALQEPRFRAHRSYLFIDNVTHDDEGDYTCQFTHAENGTNYIVTATRSFTVEEKGFSMFPVITNPPYNHTMEVEIGKPASIACSACFGKGSHFLADVLWQINKTVVGNFGEARIQEEEGRNESSSNDMDCLTSVLRITGVTEKDLSLEYDCLALNLHGMIRHTIRLRRKQPIDHRSERCDDWGLDTMRQIQVFEDEPARIKCPLFEHFLKYNYSTAHSSGLTLIWYWTRQDRDLEEPINFRLPENRISKEKDVLWFRPTLLNDTGNYTCMLRNTTYCSKVAFPLEVVQKDSCFNSAMRFPVHKMYIEHGIHKITCPNVDGYFPSSVKPSVTWYKGCTEIVDFHNVLPEGMNLSFFIPLVSNNGNYTCVVTYPENGRLFHLTRTVTVKVVGSPKDALPPQIYSPNDRVVYEKEPGEELVIPCKVYFSFIMDSHNEVWWTIDGKKPDDVTVDITINESVSYSSTEDETRTQILSIKKVTPEDLRRNYVCHARNTKGEAEQAAKVKQKVIPPRYTVESGEPRGPTIKPCPPCKCPAPNLLGGPSVFIFPPKIKDVLMISLSPIVTCVVVDVSEDDPDVQISWFVNNVEVHTAQTQTHREDYNSTLRVVSALPIQHQDWMSGKEFKCKVNNKDLPAPIERTISKPKGSVRAPQVYVLPPPEEEMTKKQVTLTCMVTDFMPEDIYVEWTNNGKTELNYKNTEPVLDSDGSYFMYSKLRVEKKNWVERNSYSCSVVHEGLHNHHTTKSFSRTPGK
# notes: also called fourth IL-33 antagonist; mouse IL-33 Trap
# B3: hST2-mFc (Fc fusion)
# chain: KFSKQSWGLENEALIVRCPRQGKPSYTVDWYYSQTNKSIPTQERNRVFASGQLLKFLPAAVADSGIYTCIVRSPTFNRTGYANVTIYKKQSDCNVPDYLMYSTVSGSEKNSKIYCPTIDLYNWTAPLEWFKNCQALQGSRYRAHKSFLVIDNVMTEDAGDYTCKFIHNENGANYSVTATRSFTVKDEQGFSLFPVIGAPAQNEIKEVEIGKNANLTCSACFGKGTQFLAAVLWQLNGTKITDFGEPRIQQEEGQNQSFSNGLACLDMVLRIADVKEEDLLLQYDCLALNLHGLRRHTVRLSRKNPIDHHSEPRGPTIKPCPPCKCPAPNLLGGPSVFIFPPKIKDVLMISLSPIVTCVVVDVSEDDPDVQISWFVNNVEVHTAQTQTHREDYNSTLRVVSALPIQHQDWMSGKEFKCKVNNKDLPAPIERTISKPKGSVRAPQVYVLPPPEEEMTKKQVTLTCMVTDFMPEDIYVEWTNNGKTELNYKNTEPVLDSDGSYFMYSKLRVEKKNWVERNSYSCSVVHEGLHNHHTTKSFSRTPGK
# notes: also called second IL-33 antagonist; ST2 receptor protein
# How the values were obtained:
# [1] = biological target: T1, human ST2 (amino acids 1-556 of …); assay: cell-based or functional assay
# [2] = biological target: T2, human IL-33 (R&D Systems, # …); assay: SPR (Biacore T-200), 25 C; Fc fusion captured by anti-Fc antibody, IL-33 injected
# Protocol: (§1) The Biacore sensor surface was first derivatized by amine coupling a polyclonal rabbit anti-mouse antibody (GE, # BR-1008-38) or with a monoclonal mouse anti-human Fc antibody (GE, # BR-1008-39) to capture IL-33 Trap and receptor proteins with a C-terminal mouse IgG2a Fc tag or a C-terminal human IgG1 Fc tag, respectively. Kinetic experiments were carried out in 0.01 M HEPES pH 7.4, 0.15 M NaCl, 3 mM EDTA, and 0.005% v/v Surfactant Tween-20 (HBST running buffer). Different concentrations of human IL-33, mouse IL-33 or MfIL-33-6His prepared in HBST running buffer (ranging from 60 nM to 27.4 pM, 3-fold dilutions, for Trap proteins and ranging from 60 nM to 0.25 nM, 3-fold dilutions, for ST2 receptor proteins) were injected over the captured IL-33 Trap and receptor protein surfaces at a flow rate of 50 μL/minute. Association of different IL-33 proteins to the different capture surfaces was monitored for 7 minutes for Trap proteins or 4 minutes for ST2 receptor proteins and their dissociation in HBST running buffer was monitored for 14 minutes for Trap proteins or 8 minutes for ST2 receptor proteins. Kinetic association (ka) and dissociation (kd) rate constants were determined by fitting the real-time binding sensorgrams to a 1:1 binding model using Scrubber 2.0c curve-fitting software. Binding dissociation equilibrium constants (KD) and dissociative half-lives (t½) were calculated from the kinetic rate constants as: […]
# [3] = biological target: T2, human IL-33 (R&D Systems, # …); assay: competition ELISA; antagonist pre-mixed with 20 pM biotin-hIL-33, binding to plate-coated human ST2-Fc
# Protocol: (§2) The ability of exemplary IL-33 antagonists of the invention to block human IL-33 (hIL-33) binding to the human ST2 receptor was measured using a competition sandwich ELISA. A portion of human ST2 protein ecto domain that was expressed with a C-terminal mouse Fc tag (SEQ ID NO:2) was coated at a concentration of 1 μg/mL in PBS buffer on a 96-well microtiter plate overnight at 4° C. […] Biotinylated hIL-33 protein (R&D systems, #3625-IL/CF) (biot-hIL-33) was added to achieve a constant final concentration of 20 pM to serial dilutions of IL-33 antagonists ranging from 0 to 100 nM. The mixture was incubated for 1 hour at room temperature (RT) before transfer to the hST2-hFc coated microtiter plates. After incubation for 1 hour at RT, the wells were then washed, and plate-bound biot-hIL-33 was detected with HRP-conjugated streptavidin (Thermo Scientific, # N200). All samples were developed with a TMB solution (BD biosciences, # 51-2607KC) to produce a colorimetric reaction and then quenched by acidification with 1M sulfuric acid before measuring absorbance at 450 nm on a Victor X5 plate reader (PerkinElmer). Data analysis was performed using a sigmoidal dose-response model within Prism™ software. […] Maximum blocking values represent the ability of the antagonists to block IL-33 binding relative to baseline. The absorbance measured at the constant amount of hIL-33 on the dose curve was defined as 0% blocking and the absorbance with no added IL-33 was defined as 100% blocking. The absorbance values of the wells containing the highest concentration tested for each antagonist were used to determine the maximum blocking percent.
# [4] = biological target: T2, human IL-33 (R&D Systems, # …); assay: competition ELISA; antagonist pre-mixed with 20 pM biotin-hIL-33, binding to plate-coated human ST2-Fc; highest concentration tested
# Protocol: as §2
# [5] = biological target: T2, human IL-33 (R&D Systems, # …); assay: SPR (Biacore T-200), 37 C; Fc fusion captured by anti-Fc antibody, IL-33 injected
# Protocol: as §1
# [6] = biological target: T3, mouse IL-33 (R&D Systems, # …); assay: SPR (Biacore T-200), 37 C; Fc fusion captured by anti-Fc antibody, mouse IL-33 injected
# Protocol: as §1
# [7] = biological target: B1; assay: cell-based or functional assay
# [8] = biological target: T3, mouse IL-33 (R&D Systems, # …); assay: cell-based or functional assay
# [9] = biological target: T2, human IL-33 (R&D Systems, # …); assay: cell-based or functional assay
# [10] = biological target: T3, mouse IL-33 (R&D Systems, # …); assay: SPR (Biacore T-200), 25 C; Fc fusion captured by anti-Fc antibody, mouse IL-33 injected
# Protocol: as §1
# [11] = biological target: B1; assay: SPR (Biacore T-200), 25 C; Fc fusion captured by anti-Fc antibody, MfIL-33-6His injected
# Protocol: as §1
# [12] = biological target: B1; assay: SPR (Biacore T-200), 37 C; Fc fusion captured by anti-Fc antibody, MfIL-33-6His injected
# Protocol: as §1
60 nM Human IL-33 Bound (RU) [2] [RU],Kd [2] [nM],koff [2] [s⁻¹],kon [2] [M⁻¹ s⁻¹],t1/2 [2] [min],IC50 [3] [nM],% Maximum blocking [4] [%],"IC50 (M), inhibition of 5 pM monkey IL-33 activation of HEK293/hST2/NFkB-luciferase cells [7] [M]","IC50 (M), inhibition of 30 pM mouse IL-33 activation of HEK293/hST2/NFkB-luciferase cells [8] [M]","IC50 (M), inhibition of 5 pM human IL-33 activation of HEK293/hST2/NFkB-luciferase cells [9] [M]",60 nM Mouse IL-33 Bound (RU) [10] [RU],Kd [10] [nM],koff [10] [s⁻¹],kon [10] [M⁻¹ s⁻¹],t1/2 [10] [min],Binder,further results
–,–,–,–,–,–,–,–,–,–,–,–,–,–,–,B1,"EC50 (M), activation of HEK293/hST2/NFkB-luciferase cells [1]: 1.7e-12 M and 1.3e-12 M"
22,0.0709,0.00129,1.82e+07,9,0.112,97,6.4e-11,8.7e-12,4.8e-10,22,0.0105,4.94e-05,4.73e+06,234,B2,60 nM Human IL-33 Bound (RU) [5]: 20 RU; Kd [5]: 0.353 nM; koff [5]: 0.00322 s⁻¹; kon [5]: 9.11e+06 M⁻¹ s⁻¹; t1/2 [5]: 4 min; 60 nM Mouse IL-33 Bound (RU) [6]: 20 RU; Kd [6]: 0.0213 nM; koff [6]: 0.000128 s⁻¹; kon [6]: 6e+06 M⁻¹ s⁻¹; t1/2 [6]: 90 min; 60 nM Monkey IL-33 Bound (RU) [11]: 23 RU; Kd [11]: 0.0535 nM; koff [11]: 0.000244 s⁻¹; kon [11]: 4.55e+06 M⁻¹ s⁻¹; t1/2 [11]: 47 min; 60 nM Monkey IL-33 Bound (RU) [12]: 21 RU; Kd [12]: 0.19 nM; koff [12]: 0.00117 s⁻¹; kon [12]: 6.16e+06 M⁻¹ s⁻¹; t1/2 [12]: 10 min
24,0.0536,0.000307,5.72e+06,38,0.0169,100,5.5e-12,1.4e-10,1.2e-11,18,0.0882,0.00035,3.97e+06,33,B3,–
